How the values were obtained:
[1] = Gastric toxicity study in a mouse model; type: in vivo, athymic nude Foxn^nu mice; conditions: 5.2 μmoles/kg (20 mg/kg) IP once daily for 4 days
Experimental: Six-week-old female athymic nude Foxn^nu mice were obtained from Taconic Labs (Cat #NCRNU-F) and were housed 5 per cage on Alpha-Dri bedding in a disposable caging system (Innovive). Human HCT116 cells derived from colorectal carcinoma were diluted 1:1 in Phenol Red-free Matrigel and subcutaneously implanted into the left flank of each mouse at a density of 2.5×10^6 cells in 100 μL. When xenografts reached a minimal volume of 300 mm^3, mice were administered intraperitoneal doses of vehicle, or 5.2 μmoles/kg of either unconjugated exatecan (equivalent to 2.3 mg/kg exatecan) or Compound 11 (equivalent to 20 mg/kg Compound 11). Compounds were administered once daily for 4 days. At 6 hours after administration of the last dose, mice were euthanized by cervical dislocation and gross necropsy was conducted. Photographs were taken of the stomachs both in situ and ex vivo.

[2] = Plasma pharmacokinetics of Compound 11 in a rat model; type: in vivo, Sprague Dawley rats; conditions: single IV dose 5 mg/kg
Experimental: Male Sprague Dawley rats underwent jugular vein cannulation and insertion of a vascular access button (VAB, Instech Labs Cat #VABR1B/22) at Envigo Labs prior to shipment. Magnetic, aluminum caps (Instech Labs Cat #Cat #VABRC) were used to protect the access port for the jugular catheters allowing the animals to be housed 2 per cage on corn cob bedding for 4-5 days prior to the study. Rats were administered a single intravenous dose of 5 mg/kg Compound 11 prepared in a vehicle of 5% mannitol in citrate buffer. At 1, 2, 4, 8, 24 and 30 hours following compound administration, blood (250 μL) was collected into K2EDTA filled microtainers from fed rats. Plasma was isolated by centrifugation and 100 μL aliquots were transferred to 96-well polypropylene plates on dry ice. Samples were stored at −80° C. until processed for quantification of total peptide by ELISA and released exatecan by LC-MS/MS.
96-Well plates were coated with 100 μL/well of 0.1 μM BSA-labelled peptide prepared in 0.2 M Carbonate-Bicarbonate Buffer, pH 9.4 and incubated overnight at 4° C. […] Luminescence was read from the plate on a BioTek Cytation 5 plate reader.
For quantification of exatecan, a 20 μL plasma sample was added to a polypropylene autosampler vial. […] The samples were centrifuged for 5-10 minutes at 3700 rpm then analyzed via liquid chromatography tandem mass spectrometry (LC-MS/MS).

With `CC[C@@]1(O)C(=O)OCc2c1cc1n(c2=O)Cc2c-1nc1cc(F)c(C)c3c1c2[C@@H](NC(=O)O[C@H]1CCCC[C@@H]1SSC[C@H](NC(=O)[C@H](Cc1c[nH]c2ccccc12)NC(=O)[C@H](CC(C)C)NC(=O)[C@H](CC(C)C)NC(=O)[C@H](CC(=O)O)NC(=O)[C@H](CC(C)C)NC(=O)[C@H](CC(C)C)NC(=O)[C@H](CC(C)C)NC(=O)[C@@H](NC(=O)[C@H](CC(=O)O)NC(=O)[C@@H](NC(=O)[C@@H]1CCCN1C(=O)[C@H](Cc1ccccc1)NC(=O)[C@H](CC(C)C)NC(=O)[C@H](CC(C)C)NC(=O)[C@H](CC(=O)O)NC(=O)[C@H](CC(C)C)NC(=O)[C@H](Cc1ccc(O)cc1)NC(=O)[C@H](C)NC(=O)[C@H](CCCNC(=N)N)NC(=O)[C@H](Cc1c[nH]c2ccccc12)NC(=O)[C@@H]1CCCN1C(=O)[C@H](CC(N)=O)NC(=O)[C@H](CCC(N)=O)NC(=O)[C@H](CC(=O)O)NC(=O)[C@H](CC(=O)O)NC(=O)[C@H](C)N)[C@@H](C)O)[C@@H](C)O)C(=O)NCC(=O)O)CC3` [Compound 11] the “gastric toxicity (stomachs in situ and ex vivo)” value [1] was “did not display the gastric toxicity”, the stable in plasma [2] was “at least 30 h” and the “exatecan warhead released in circulation” value ([2]; after 30 h) was “less than 0.002%”.

— patent US12410262B2, “Peptide conjugates of cytotoxins as therapeutics” (Cybrexa 2, Inc., priority 2019, dated 2025)
